The results in this text go back to PMC7863765.

In test [1] the target is phosphorylated SARS-CoV-2 N construct pN.1-238 (SARS-CoV-2) (UniProt P0DTC9). The test can be described thus: SEC-MALS.
The target in test [2] is phosphorylated SARS-CoV-2 N construct pN.1-211 (SARS-CoV-2) (UniProt P0DTC9). The test can be described thus: SEC; observed qualitatively; Figure 6(C) and data not shown.

“untagged full-length human 14-3-3γ (from UniProt P61981 1-247) (natural protein)” gave a stoichiometry N (14-3-3γ chains per pN.1-238 chain (2:1)) in test [1] of 2. The substance further gave a stoichiometry N (14-3-3γ chains per pN.1-211 chain (2:1)) in test [2] of 2.
